This data set can be described thus: label from the status in PepcDB records.
“MNQCRLRSLARIRRSLTLGLRGTDQHVLARQALRTIQTTSQRRGVHDLDSFANGCSAAYIEGLYNKWKRNPSSVDESWNELFSSNDWSSPKRSPLQVSHSRKYRRPPVERIAVKARSGERTASGGASAAPAAPPSDWKNIDDHHVIQAIIRAYQSRGHLAADLDPLGIVGPKKRTSVDGTQRHAAREVLRQHFSYIFNDLNTVFKLPSSTMIGGDQEFLSLKEILDRLERIYCGHIGVEYMQITSLTKTNWLRDRFEKPGGLDLTKEEKKLILERLTRSTGFENFLAKKFSSEKRFGLEGCDIMIPAIKEVVDRATDHGVESILIGMAHRGRLNVLANICRKPISDILSQFHGLQATDSGSGDVKYHLGVFQERLNRQTNRMVRITVVANPSHLEHVNPVLLGKARAEMFQRGDTCGSTVMPIIIHGDASFSGQGVVYESMHLSDLPNYTTYGTIHIVSNNQVGFTTDPRFSRSSRYCTDVAKVVNAPILHVNADDPEACIQCARIAIDYRTRFKKDVVIDIVGYRRNGHNEADEPMFTQPLMYQRIKKLKPCLQLYADKLIKEGVVTDSEFKAMVSSYEKICEDAWAKSKTIKTIKYSSWIDSPWPGFFEGRDRLKLCPTGISTDTLKTIGNMFSTPPPPEHKFETHKGILRILAQRTQMVQDKVADWSLGEAFAFGSLLKEGIHVRLSGQDVERGTFSHRHHVLHHQSEDKVVYNSLDHLYPDQAPYSVSNSSLSECAVLGFEHGYSMASPNALVMWEGQFGDFCNTAQCIIDTFIASGETKWVRQSGVVMLLPHSMEGMGPEHSSGRIERFLQMSDDDPDVYPDTCDADFVARQLMNVNWIVTNLSTPANLFHCLRRQVKMGFRKPLINFSPKSLLRHPLARSPFKDFNECSCFQRIIPDKGPAGKQPDCVQKLVFCSGKVYYDLVKERDDHEQVETVALVRVEQLCPFPYDLISQQLELYPKAELLWAQEEHKNMGAWSYVQPRFDTALLKNENESRCVSYHGRPPSASPATGNKVQHYNEYKALITSIFGELTPENKKRIEDRIKKQQAKAKADAQSKPSTKPPAAPPKGGSSPPPGPAPRKPLISLPSRPPRGGKQRSGSAPAPNLVDEDSAARNREPDASAYDGASPSAWKRSGSAPAPSVVPRASASRSPSRKSPSPSHDGISPSTRQESLSKKKSGSAPAPTPTSRGPFRTAPSNTEFIKRRPAKDYGSRNETQSTPGESELDPTKPQP”: the protein production result is reported as “failed”.

For “MSRELKLRIVSAIVMAAVILAATWYGGILFRIVAGLLAILIYYEWSTITRMSETNSTGNAWGWFAVAVIAGNTIFGESSLDLPLLSGFTLTAALFPVLRGKNWWLVGGIFYAGLSGISLAAIRGDELAGFASILFIFAVVWSTDILAYFVGRAIGGPKLAPSISPGKTWSGAVGGAVAAVIGGAAVSMAYHGRISLLLVGLALVLSVFSQIGDLFESFVKRRFQVKDSSHLIPGHGGFMDRVDGLVFACFTVFLIAFVHAAATGDVPGSGGGLLPGF”, the protein production entry is given as “failed”.

Turning to “GPPSRRSENRVVVSGLPPSGSWQDLKDHMREAGDVCYADVYRDGTGVVEFVRKEDMTYAVRKLDNTKFRSHEGETAYIRVKVDGPRSPSYGRSRSSGPSSG”, the protein production result is listed as “not failed”.

With “VSDPLHVTFVCTGNICRSPMAEKMFAQQLRHRGLGDAVRVTSAGTGNWHVGSCADERAAGVLRAHGYPTDHRAAQVGTEHLAADLLVALDRNHARLLRQLGVEAARVRMLRSFDPRSGTHALDVEDPYYGDHSDFEEVFAVIESALPGLHDWVDERLARNGPS”, the protein production entry is “not failed”.

“MVAAIIAGAAVAAAAYAGKYGIEAWQAFKLRPVRPRMRKFYEGGFQATMNRREAALILGVRESVAAEKVKEAHRRVMVANHPDAGGSHYLASKINEAKDMMLGKTKNSGSAF”: the protein production result is reported as “failed”.

Regarding “MKLIGITGMPGSGKSAITKLAEKYKIVVVSMGDVVRYETLKQGMPLNPENVGNTAVKLREIYGKEAIAVPCLNYVNEKYNNEDFVIIEGIRSIYEVNYIKKHAELDIIAIHSSPKTRFERLSGRNREDDSNDWNTFVERDERELNFSIGRVISLADYMVVNEGNYMDFVNDLENTFKKIINVN”, the protein production entry is listed as “not failed”.

With “MSSRPQREKSMTALTQHAPVLEIYQDIANLTSRMLAAANASNWDLVLNHGQEYVCLVERLRELEPGEPLDEAARGMKFDLLVRILENDAAVRDLALPQLARLSDLLGRMKRQQSLLATYSGKANGT”, the protein production entry is reported as “not failed”.

With “MSGVILGRYWGGLSQLIYVIIGAAGVPWFADMSGGPEVLLGATGGYLLGFILAALLLGHFVDRHIRARKFTPMLGLMTIANFGLIYIPGLVVLGLWSLKTQGTLPGPWELLVMGLLPFIPGDILKITGAAALTRAITPKEPYGEEIDIQKAEGWRVP”, the protein production result is reported as “failed”.

As for “VRSQVLKYMVPGARVIRGLDWKWRDQDGSPQGEGTVTGELHNGWIDVTWDAGGSNSYRMGAEGKFDLKLAPGY”, the protein production entry was “not failed”.

With “MQNRWAETKFDSDIDEVVYGSRLIGSDPDLVLHGGGNTSVKTTERDHAGRIISVLRVKNSGSNLGTIDSRGFTGIRMDDALAAAKIDKMTDEAMVDYLKKSMVNPSEPSPSVETFLHAFLPYKFVMHSHADAILSITNTDLPSDQIAKILGNVVVLPYIPPGFTLAKEVMNCFKKGIDGIVLRKHGLLTFGDTGKEAYDRHINIVSRAENFIREKTDGK”, the protein production entry was “not failed”.

As for “MIEFITPRTFLFSTQTVVFSVLLFVFYIFYRTFSRKYVKYWLMSIGALNFSYLIKSFVPYSSRNFSSDSWQILAELLLQIFQYSFLIFLIFGVYIAKNNKELSKEILSGGIGAIIILSVISTMFFAFDPSQAFNHFYLTISLPSFIFGCTFLSLACYLLFDKKSYFSSQVLMYFSAIFGLRYLMHSFISIVALTEPWFRQLELFLLYFDVAAHSILGFTLLIWMQGAERFATLSAISRAQYLGKHDSLTGALNREQVMAKLSDKMQELTHANKINKNQMKLAVFLIDIKQFKFINDTYGLKVGDFILGEIASRLNHSVFIPQAVGRLSGDSFMFVIEFEQISHVDRAVNHIHELIERCFRYEQQEITIQGSVGYCFYPDDADKSEDLLQKSNLALHHAETNNIPSVAFEEGMQAQGRHLVLMEKQLRSAIANDEFVLYYQPQLNLFTNKLEGVEALVRWQHPEKGLLSPGDFLTELETLGMHNEFDNYILVKACQASERWFKLYQRRVAIAVNITAVEFQNEQLVTNIQMLLHKYGIPSKYIELEITENVVMTDITRAMDSIVKLQSMGIKVSIDDFGTGYSSLAYLRDLPIDKIKIDRSFINEVAINDSDLTIVKSMVDLSHGLGKRVLAEGVETIEQLNLLRHLGCDAVQGYFISKPLPESKLVRYLKKK”, the protein production entry was “failed”.

With “MLRSCARRLRTLGALCQPPPVGRRLPGSEPQPALRSFSSEEVILKDYSVPNPSWNKDLRLLFDQFMKKCEDGSWKRLPSYKRTPTERIQDFKTHFLDPKLMKEEQVSQAQLFTRSFDDGLGFEYVMFYNDVEKRMVCLFQGVPYLEGPPGLIHGGAIATMIDATVGMCAMMAGGIVMTANLNISCKRPIPLCSVVRINSQLDKVEGKKFFVSSNVQSVDEKTLYSEATSLLIKLNPAKSLT”, the protein production entry was “failed”.

Consider “MPISEDLKQAIRQRARYICEYCHSPERLSANRFTIDHVIPKSLGGSDAFNNLALACRRCNERRYNFVASIDPQTKTIVAIFNPRQQNWAEHFIWTNRGIIIQGTTTTGRATCIRLDLNDTRYPEEDSIQETRRFWLKTGLHPPIDDPCKNLEHHHHHH”, for which the protein production result is given as “not failed”.

Regarding “MENWFRADTWFGRLVDVGNTFIWTYVLIALLLGLGLYFTFVSRFVQFRLLGEMGRLLVEGMNRKAFKERKGTSSFQAFAISTAARVGTGNLAGVAVAISLGGPGAIFWMWIIALIGAATGFIESTLAQIYKVKDKDGFRGGPAYYMEKALNARWAGILFAILITLCFGLIFNAVQTHTIADAFVGAYDLNPFFIGLIIAFVMAFIVFGGIRRIAVIAEVIVPTFAIAYVLIALVIVLLNITQVPSVIGLIVGNAFGIQEVVGGGFGAAIMHGIRRGLFSNEAGMGSAPNAAATAHVSHPVKQGLVQSLSVLTDTLIICSATAFLILLTDVYTVGEMGGIQLTQEALTVHIGEWSMTFVTIAISFFAFSSLLGNYYYGEANIQFISQNRALLTVFRLAFLAMILIGATSELQIIWEMADLIMGAMAIVNLIAIALLAKIAVQALTDYQHQRKQGIDPVFYKNSLPDLKNIEAWDEKPVKEKN”, the protein production result is on record as “failed”.

Consider “MLGGVIVVKKAIAALGIGAVAVSVSSINASALEKGTVTASALNIRSGPSSDCDKVAKLYKGKTVEILEKSNGWYKVRVSSSVVGWGSAKYISTSGSSEGTSSQNNSTSSGTTISGNGKVNVSSRLNVRSGAGTNYSLVGKANNGDVVKLLEQSNGWYKIKLSNGVTGWASSQYISKTSEDVGTNNSSNSNSTNNSDKKPSSEESIEGKNGKVTSAVSLNVRSGPGTSYSIIGKLNGGDVVELKAKSNGWYKVKLSSGTIGWVSASYISETNEDTKEKPNSSSNQNSQSNSNSKPSFTGNSDKSTAKGSTIVDFAYTLIGIPYQWGASGPDKFDCSGFTQYVFKHSVGVSIPRVSREQANFGSAISMGNYAPGDLVYFDTDGDGTTNHVGIYVGNSKFIHCSGTQTNPNKVKVDNLTSSYWSKVLLGARRFV”, for which the protein production result is recorded as “failed”.

For “STQYMELNQRDEKSPFRNANLRKAISYSIDRKALVESILGDGSIEPNGLVPADMAKDPSGGKDFAKEAGSQIEYDTKKAKEYWEKAKKELGISTLTMDILSSDADSSKKTVEFVQGSIQDALDGVKVTVSPVPFSVRLDRSNKGDFDAVIGGWSADYADPSSFLDLFASDNSYNRGRYNNAEFDKFVKAASSADATDPEKRWDDMLNAEKTIMGDMGVVPLFQKS”, the protein production result is given as “not failed”.

“MSLANWYLDNESSRLSFTSTKNADIAEVHRFLVLHGKVDPKGLAEVEVETESISTGIPLRDERLREQVFQVHKFPVAQINAQLDMRPINNLAPGAQLELRLPLTVSLRGKSHSYNAELLATRLDERRFQVVTLEPLVIHAQDFDMVSDFNALRNAAGLSAVSLSVPVGAVLIFTAREGHHHHHH”: the protein production entry is listed as “not failed”.

As to “MKRWGLIFPTLYFFFLFIMIFVFNFPREVTRQWMWIQVGGIVFMIALGLYFDGYASLKEVITIGAFTLLWLGLSFTVNIRKEYFTLLGLIIELVLDLALREGG”, the protein production result is “failed”.

As to “QAAPSQVVVIRQERAGQTSVSLLWQEPEQPNGIILEYEIKYYEKDKEMQSYSTLKAVTTRATVSGLKPGTRYVFQVRARTSAGCGRFSQAMEVETGKP”, the protein production entry was “not failed”.

Consider “MSKTANFLSLRSNPLPPIFSSTGNSPFLRASSALNLPTTASKPFHSWIRASSRRRLVLGGFGGASLWMNNNMSGKFGGKSFIASARQTNPSPVEQALNKVDWPETFPFKEEDFQRYDESSDSTFYEAPRFVTHIDDPAIAALTKYYSKVLPQSDTPGVSILDMCSSWVSHYPPGYRQERIVGMGMNEEELKRNPVLTEYIVQDLNLNSNLPFEDNSFQVITNVVSVDYLTKPLEVFKEMNRILKPGGLALMSFSNRCFFTKAISIWTSTGDADHALIVGSYFHYAGGFEAPQAVDISPNPGRSDPMYVVYSRKLPMV”, for which the protein production entry is on record as “failed”.

Take “MSLSTAADLLRQGAACSVLYLTSVETESLTGPQAVARASSAALSCSPRPTPAVVHFKVSAQGITLTDNQRKLFFRRHYPVNSITFSSTDPQDRRWTNPDGTTSKIFGFVAKKPGSPWENVCHLFAELDPDQPAGAIVTFITKVMLGQRKEGHHHHHH”: the protein production entry was “not failed”.

Turning to “MKLTLRKKLLEKVENTTETPMLILSVVYVVVALLPDIAVLSPDDLEFLDGLLWIVWGIFATELLVKIFVSPKPLQYMMQNWPDVLIVAMPFLRPLRFLRILLVLPKAWRQTKSVLRQKTFSFIGLTSLSTVLLSAAFVYLVEKGTPSPINSYADALWWAMSTITTVGYGDMYPVTGFGRGVAVFLMLTGITLFGLLTASVASFFVEDDTAKQDHLSLNLLLEKNQQLETQLNQLVETQQPRKRFHLASYRRQLAERETVRKNQKPKRRRIKLPSQDNRNA”, the protein production result was “failed”.

The values are drawn from a protein production outcome set (Wang et al. 2014).
